2 substances from PMC4073121 can be followed below.

Assay [1] concerns the target bfloGFPa1, green fluorescent protein of Amphioxus (Branchiostoma floridae) (Branchiostoma floridae). The assay is described as follows: SEC; size exclusion chromatography of the purified protein (Fig. S1); column and buffer not told. (Size exclusion chromatography separates by hydrodynamic size, large species first.)
Assay [2] deals with bfloGFPc1, green fluorescent protein of Amphioxus (Branchiostoma floridae) (Branchiostoma floridae). The description is as above.

In assay [1], “bfloGFPa1, green fluorescent protein of Amphioxus (Branchiostoma floridae) (natural protein)” returned a stoichiometry N of 2.

Take “bfloGFPc1, green fluorescent protein of Amphioxus (Branchiostoma floridae) (natural protein)”: in assay [2], the stoichiometry N stood at 2.

Broadly, the stoichiometry N is a count of units in the complex or per binding partner.
